Experimental data reported in doi:10.64898/2025.12.17.694870 (bioRxiv, 2025).
Where a chain is given by its changes, count along the chain named. Where no end group is shown, it is not given here.

T1: wild-type Homer1 EVH1 domain (1-118) (Mus musculus, UniProt Q9Z2Y3 1-118)
T1 sequence (looked up): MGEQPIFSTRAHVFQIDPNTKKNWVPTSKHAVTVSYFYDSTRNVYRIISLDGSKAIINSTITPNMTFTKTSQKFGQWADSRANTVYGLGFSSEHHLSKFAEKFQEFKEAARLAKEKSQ

T2: Homer1 EVH1 domain (1-118) S97L (Mus musculus, UniProt Q9Z2Y3 1-118, S97L)
T2 sequence (looked up): T1 sequence (looked up) with S97L

T3: Homer1 EVH1 domain (1-118) M65I (Mus musculus, UniProt Q9Z2Y3 1-118, M65I)
T3 sequence (looked up): T1 sequence (looked up) with M65I


Key:
[1] = target: T1, wild-type Homer1 EVH1 domain (1-118); test: BLI
[2] = target: T2, Homer1 EVH1 domain (1-118) S97L; test: BLI
[3] = target: T3, Homer1 EVH1 domain (1-118) M65I; test: BLI
[4] = target: T1, wild-type Homer1 EVH1 domain (1-118); test: NMR titration
[5] = target: T2, Homer1 EVH1 domain (1-118) S97L; test: NMR titration
[6] = target: T3, Homer1 EVH1 domain (1-118) M65I; test: NMR titration

| binding result [1] | binding result [2] | binding result [3] | binding result [4] | binding result [5] | binding result [6] | Binder |
| --- | --- | --- | --- | --- | --- | --- |
| binds | binds | binds | – | – | – | LVPPPEEFANG (also: biotinylated, site not given here) [biotinylated Shank3 peptide ligand LVPPPEEFANG] |
| – | – | – | binds | binds | binds | LVPPPEEFANG [short Shank3 peptide LVPPPEEFANG] |
